We go through one molecule from PMC8303269, “ERα36–GPER1 Collaboration Inhibits TLR4/NFκB-Induced Pro-Inflammatory Activity in Breast Cancer Cells” (International Journal of Molecular Sciences, 2021).

The target of the assay is T1, G-protein Estrogen Receptor 1 (GPER1) (human (endogenous in SKBR3), UniProt Q99527 1-375).
T1 construct: Endogenous protein precipitated and detected with mouse monoclonal anti-human GPER1 (clone 2F2); also called GPR30; source: endogenous, SKBR3 cells (fixed cells; whole-cell extract)
T1 sequence (Q99527 whole entry): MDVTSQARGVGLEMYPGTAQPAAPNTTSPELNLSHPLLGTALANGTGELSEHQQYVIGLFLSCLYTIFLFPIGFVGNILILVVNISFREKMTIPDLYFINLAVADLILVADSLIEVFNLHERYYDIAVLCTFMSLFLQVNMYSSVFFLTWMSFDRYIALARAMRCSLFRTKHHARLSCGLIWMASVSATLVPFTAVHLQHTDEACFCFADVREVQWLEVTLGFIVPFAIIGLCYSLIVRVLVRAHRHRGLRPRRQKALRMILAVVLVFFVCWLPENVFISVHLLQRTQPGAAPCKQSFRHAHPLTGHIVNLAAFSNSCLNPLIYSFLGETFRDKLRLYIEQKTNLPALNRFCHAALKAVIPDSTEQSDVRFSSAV
Description: proximity ligation; Duolink In Situ, bright field; fixed SKBR3 cells, endogenous proteins; rabbit polyclonal anti-ERα36 and mouse monoclonal anti-GPER1; cells treated with E2 (10^-7 M) and/or LPS. Particulars: partners not purified.

B1: estrogen receptor alpha 36 (ERα36) (receptor, human (endogenous in SKBR3), UniProt P03372-4 1-310, looked up)
chain: MAMESAKETRYCAVCNDYASGYHYGVWSCEGCKAFFKRSIQGHNDYMCPATNQCTIDKNRRKSCQACRLRKCYEVGMMKGGIRKDRRGGRMLKHKRQRDDGEGRGEVGSAGDMRAANLWPSPLMIKRSKKNSLALSLTADQMVSALLDAEPPILYSEYDPTRPFSEASMMGLLTNLADRELVHMINWAKRVPGFVDLTLHDQVHLLECAWLEILMIGLVWRSMEHPGKLLFAPNLLLDRNQGKCVEGMVEIFDMLLATSSRFRMMNLQGEEFVCLKSIILLNSGISHVEAKKRILNLHPKIFGNKWFPRV
notes: called estrogen receptor isoform 4 in the NCBI database; Endogenous protein detected with a rabbit polyclonal anti-ERα36 antibody; also called ERa36; estrogen receptor isoform 4; source: endogenous, SKBR3 cells (fixed cells; whole-cell extract)
Take B1: the “fold increase of interacting pairs (PLA dots) with LPS” value is roughly 5 fold.
